The data set is described as follows: protease stability score; higher = more stable; yeast display proteolysis, trypsin and chymotrypsin.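 Further: relative to predicted unfolded state with 0 unfolded-like and 1 meaning tenfold more protease.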
Take “DDIREDLLRIIKLFIDYLITGDWKWIEKLADPHVRVEIDVNGKEIERHGMDQLREHLKHLWDRYDHLEFRIDDFKAIGEYSTLNGTLIVVVDGQKKSVEVRVVIVIINGKIDEVRHEQN”: the protease stability score is -0.239. For “DEDHDLQEEILKRFEHLFRTGDWKELHHLLDPHARTRWDGRTRHGRDQVLDVMREMGADHLTIHHYNIQGEKIRIDFDLEIGDKRHKLDIHVSKINGKWIVKHIEIDTR” the value was 1.03.

The sequence “DESDKEREDVFRSWIESMRTGDEKNMRELMDPHARTEIGDKEYHGREVVEYIRREWRITHVELHRIEKQGDKIISHGHDEINIDGRKLYIHSRIIARKVNGVWIIESLEFH” registered a protease stability score of 1.29. Take “SEEEVQFRRFFEAFLHFWETGDEKMLKTLLDPHVKFTVHFENHRSHYHGREEFTKFLHELGVKHFELDRVRIEFQGDKIRIEIDGVLLYDGRFHESHIILIIVKVDGRWVIHQLHIQIE”: the protease stability score stood at 2.15. “DEDEHRTKYWMQILIEVFKTGDWRRLWELFDPNVRLDINGKDSHGRRDMVRVFEEELRHMGINHIELRDFEIQGEKAIVHMTINVDGRRHELELIFLVVDGRVKEIRVHER” displayed a protease stability score of 1.88. The value for “DQEERIAHKVAEFFLHALLTGDERLLTEYFDPHVRIIIHINGVEIRYHGREEWVEWLRDILRRFDVVRFHIRDIRNIGNKSIVHSEHREHVNGKSRSTRTELLIDVVDGRIHEVEIRIE” was 1.44.

“DEEHELTRKVLTEMWEIFMTGDWKRWHELLDPHVRFVYVQGEFEDVHHGREEVKRLFDKLLKDLGFKHSELTDTRLVGNKAVIDGTIHVGDKIYDFHLNVLVVNGKVKTIEVEIREK” returned a protease stability score of 1.94. “DEDMELVLKWVHEFAEMFETGNEHELLRMLDPHVRLEYGEKEIHGREDITRFWEEKIRKLGIKHIRVHIRDARIQGEKLHLDTELKLDYNGKTDHERYIIIIIKINGKWSIKSFQVE” yielded a protease stability score of 1.55.

The sequence “DESDTLAKEATREFEEFMRTGDEHSLLKLADPHVRLFWNGKQLVGREDYSKHIKFLLEHFGFDNIESRTEHIDWQGDKLRLHLRMHVNGKTITVEIHSEKINGRWMNREIHFT” had a protease stability score of 1.44. The value for “DEEEEHLRTMWEIWMHALRTGDEDFMTNLADPNVRVLILQGDKEEESHGRDELSRLLREIRIEEFTITDVRIQGDKSEADVHVVGQIDGRRTRTKIRISFIIFNGRLHSIRFEIH” was 2.2; that for “SDEERDANRFIKLWVDAMTTGDWEEISLLLDPNVLLLVGDKTYHGREEFVRIMHELIERVKNIRVEIKHREVQGDKIRVDTVLRVNGRTLREHVVMEKVNGQWVIRSLEFD” was 2.3; that for “SEDRENIYRQIREVEEALKTGDEELMLHLMDPHVRIDINGRHNHGREEMVRFIREIRISLKHVDIHHVQDDENELIVHVRVNLVIEVDGKRREEEDNALFIFVKIDGRWVFSIIRIQ” was 1.76.

“DEEEDLQRHVADEFLHNLLTGNEHDIERLMDPNVKLIMDVNGVKLHFHGREQVLKLLREWRLDHWEVKRRHLVGDYAVLDGHQQGVIDGREVRTDSEIELRLYNGRMKEVTIRVR” registered a protease stability score of 1.47. The value for “SEEEQFFRLALELFRQVLQTGDEDRLRELVDPNAKHIINGVELHGRSVLEEFLKRYKNLRIHDVEIKDIRVFDGKLELHGIEDGIIGDKRDERRWHLISEKVDGRWIMHEIQID” was 1.7; that for “SEEERDMKEWLRLHVEALRTGDEHHLRHLMDPHTRIQVGDKEIHGMDEIARHVREIRQHVEIRVHHVEIIGDKIIMDVELRLIVHFDGKTFDIKTRFLLHIWKVNGRWILKSVHIE” was 1.21.

In turn, “SEETKEKHDFVEEWRHFLETGDEHELTRMIDPNVRVIINGQEHHGREAFEEMLKRIDVIHHVVIRKERSINGVIRLNFEVDGVINGRRHRTEFHIIVLKINGRWLIHQISIH” gave a protease stability score of 2.04. Sequence “SHEEEESTKVAEDWLRHVLTGDEEDMTKLADPNTKVDVGDKHMHGMRSYWEFLHEIRIKHVHVHRIHIELVNGRAFIIIDGEIHEEVGDKEVEIKSRFILIVEKVNGRWIIREVRYQRI” showed a protease stability score of 1.54. Sequence “NEDEEVERKWLEFIRHALHTGDERILHELLDPHAQLIYGDKHIIGREEMTRQFIELGVDHMEDKRVHHQGDKIHQDGTEHVNGKERKVRFVVAKVNGRWIWERMHVI” had a protease stability score of 1.03. The value for “DQEHRDLHKLAHLILEYLVTGDFEMFEHLADPNVKVNINGKEMHGMERMREHLELIWKELRIHHLHITEVTIQGNKVEIDGRWDGKVNGQHRIEERHFYLVTVNGRIRHISEEIV” was 1.37; that for “SEHEKVYHDAIKIYQDNLKTGDEKRMEKFFDPNVIIHIGDKELVGRELVRHQATELARRVDHVEVHIKHVDVQGEKIRINGEIEIEINGRTIRFETHLVILKVNGRWIIHSEFIL” was 1.04; that for “DEDRFETELAVDLWLRTLETGDEHFLHRLADPRVQLEYGNFHYHGRHEFLHWFHDLKRKYKNLRVDIRDVRDIDGRIILHTELKQGDKHIESKVYMEKYDGRWLIKSYEIR” was 0.971. Regarding “SEEQRLSEELFKRLVDYLLTGDWHSLKELLDPHVKVVVNGKEEIGRERMARHWLELHEKVPNMKSEFRLRYYEIQGDKAHYEVEIILHVNGRIRHIDIEVVMEKVDGRWMLHSITIR”, the protease stability score came to 1.3. Consider “SEEEKLSRELSKLILHYLHTGDWDQITELADPNVRIHDTINGRDNDNHGWEMLIALMEQLGVDVRRFHHIRVIGDKVHMEVELNFNGRTVHAEWTFKVVDGRMKSIEIRTK”, for which the protease stability score turned out to be 1.34. For “SEDVERVRHSIIVWLHILLTGDEETISKYADPNARYVQGDKHHHGMEYIAIKIRELRWSVTMEIEHMHVVDGRAHIEGRLILRIHINGKEDVEDHELELHMIKVDGKWILHEIKIK” the value was 1.59; for “DDWEEVTRRSVEEFIRAIDTGDEDFLRTMVDPDTRVEINGVEVHGMEELMRLFSEHIKKVKNIRFHLEIRHVESQGDKIRIEGHEESNVDGRHRKKSTEMHWIKVDGRWFLHRVILR”, 1.39; for “SEEDRFAIEVSEELSRAIETGDEDRLRHLLDPNVKVNVGDKTLHGREEYLHYLRELLRDLGVDVIHIEFQDVRFIGDKLVIDGSLDLRVGDKVIEHKITIIIWKFDGRWVSHSEHIH”, 1.25. The sequence “TEEDHKAFTMVELFLNALTTGDERTLEKLVDPNVRVNIDGRDVHGMSILIRWREHLRFEFREVNNKRSELQGEKLHVDSEVDRHIRIGDKEDREHIRIHFHLLKINGRWFIEEVRML” returned a protease stability score of 1.36.

In turn, “DKEEEDVKKFTDEFIHHYLTGDWEKIRELADPNVRLIVGDKTLHGRELFIDWLRDELRRIDHIEHHVHRMSVINGKVHIDAELRIYINGRLHQTRIEIHLVIIDGRMRMVELRFR” displayed a protease stability score of 2.13.

“DEEERHVRELLQRLINALDTGDWKTIHELFDPHARMEINGQHYHGRETINDKLKEMRVSVHDWEQKHIDTFEGHAVVHTHVHIVYIVNGVKHINDTREMIVFTKINGRWVIESRHVK” came in with a protease stability score of 0.563. For “HKLDEITKDMLEIFEKHSQTGDFQSLAKNVDPHARVDWDGRQFHGREDVQEVMIRLGVDHIEFKRIDIQGEWVHMDGQVYVNGRTTRTEFVSLKVNGRWYIHELRVR” the value was 0.875. “SEEEEQAKRVIDHVTRAIHTGDEDVLRRQFDPHVKIEVGDKDIHGWETMYEILTHIRIETESDVKDFKVQGDKLIMDVRLRFTIRIDGVEIHRQTTTNIIVHKVNGRWQMKKVEIR”: the protease stability score amounted to 0.409. “DETEDEMHKVLKLWIEAYRTGDEELLEELFDPHVRLDINGKDFHGREAFTRQVRHEMKHLRYEDFHIDTVEVQGEKAFVHGRIVGKFDGRRRHMHSHLIILKINGRWHVESLHFK” showed a protease stability score of 1.26. The value for “DEKEKEFKEVWKRILEILLTGDEEELTRMADPHARLDVNGVERHGREEMSKYIRHWHEKVKNARFWIHSIHVVGEKVVIDTEIQIGDKRIRYIVHFIVVDGRIKEIHVHEEII” was 2.12. On to “DEMDEHARDLFELLLRIWLTGDEHELRELADPHVRIHVGDKNHVGMDKFAHEFIRHVQERGVRIEIRIRDHHAINGVSHSDGEIVLNYDGREYRMDTKIIMVIYNGKVKELRFHIR”, for which the protease stability score worked out at 1.39.

(Values after the NTF2 design screens of Basanta et al. (2020).)
